Consider 94 variants from the supplement of paper PMC10567573.

The chains are these.
B1: ZNF649 (parent)
chain: LTEHKRIHTGKKPHVCSLCGKAFY
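Note: lentivirally expressed fusions sorted by FACS into six bins by GFP to DsRed ratio, PSI derived from sequencing read proportions per bin multiplied by bin number.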

The variants in the data set derive from B1. As to the kind of experiment: protein stability index of a GFP-peptide fusion (GPS, HEK-293T) (PSI 1-6); higher = more stable. The note with it: c terminus: a fixed tail appended.
For the variant LTEHKRIHTGKKPHVPSLCGKAFY [C16P], the protein stability index turned out to be 2.56.
LTEHKRIHTGKKPHVESLCGKAFY [C16E]: the protein stability index was 3.62.
With LTEHKRIHTGKKPHVMSLCGKAFY [C16M] the figure was 2.75; with LTEHKRIHTGKKPHVQSLCGKAFY [C16Q], 1.93; with LTEHKRIHTGKKPHVNSLCGKAFY [C16N], 2.55.
With LTEHKRIHTGKKPHVSSLCGKAFY [C16S] the figure was 3.52.
The same measure for LTEHKRIHTGKKPHVISLCGKAFY [C16I]: 2.18.
As for LTEHKRIHTGKKPHVYSLCGKAFY [C16Y], the protein stability index came to 2.23.
For the variant LTEHKRIHTGKKPHVCSLCCKAFY [G20C], the protein stability index worked out at 2.93.
With LTEHKRIHTGKKPHVCSLCTKAFY [G20T] the figure was 1.55.
The same measure for LTEHKRIHTGKKPHVCSLCSKAFY [G20S]: 2.35; for LTEHKRIHTGKKPHVCSLCIKAFY [G20I]: 1.91.
With LTEHKRIHTGKKPHVCSLCFKAFY [G20F], the protein stability index was 1.97.
The same measure for LTEHKRIHTGKKPHVCSLCMKAFY [G20M]: 2.56; for LTEHKRIHTGKKPHVCSLCRKAFY [G20R]: 2.05.
The same measure for LTEHKRIHTGKKPHVCSLCPKAFY [G20P]: 1.91; for LTEHKRIHTGKKPHVCSLCVKAFY [G20V]: 1.94.
With LTEHKRSHTGKKPHVCSLCGKAFY [I7S] the figure was 3.72; with LTEHKRVHTGKKPHVCSLCGKAFY [I7V], 2.58; with LTEHKRCHTGKKPHVCSLCGKAFY [I7C], 2.6.
For the variant LTEHKRRHTGKKPHVCSLCGKAFY [I7R], the protein stability index stood at 3.93.
Regarding LTEHKRFHTGKKPHVCSLCGKAFY [I7F], the protein stability index was 2.18.
With LTEHKRQHTGKKPHVCSLCGKAFY [I7Q] the figure was 2.73; with LTEHKRIHTGMKPHVCSLCGKAFY [K11M], 2.56; with LTEHKRIHTGRKPHVCSLCGKAFY [K11R], 1.76.
The same measure for LTEHKRIHTGVKPHVCSLCGKAFY [K11V]: 2.88; for LTEHKRIHTGIKPHVCSLCGKAFY [K11I]: 2.77.
With LTEHKRIHTGEKPHVCSLCGKAFY [K11E] the figure was 3.4.
As for LTEHKRIHTGQKPHVCSLCGKAFY [K11Q], the protein stability index was 3.01.
The same measure for LTEHKRIHTGHKPHVCSLCGKAFY [K11H]: 2.23; for LTEHKRIHTGFKPHVCSLCGKAFY [K11F]: 2.79; for LTEHKRIHTGYKPHVCSLCGKAFY [K11Y]: 2.5.
With LTEHKRIHTGSKPHVCSLCGKAFY [K11S] the figure was 2.43; with LTEHKRIHTGPKPHVCSLCGKAFY [K11P], 2.76.
With LTEHKRIHTGKKGHVCSLCGKAFY [P13G], the protein stability index is 2.48.
With LTEHKRIHTGKKYHVCSLCGKAFY [P13Y] the figure was 2.88; with LTEHKRIHTGKKMHVCSLCGKAFY [P13M], 3.06; with LTEHKRIHTGKKHHVCSLCGKAFY [P13H], 2.29.
The same measure for LTEHKRIHTGKKDHVCSLCGKAFY [P13D]: 1.8; for LTEHKRIHTGKKVHVCSLCGKAFY [P13V]: 3.06.
The same measure for ETEHKRIHTGKKPHVCSLCGKAFY [L1E]: 2.87.
VTEHKRIHTGKKPHVCSLCGKAFY [L1V]: the protein stability index was found to be 2.57.
ITEHKRIHTGKKPHVCSLCGKAFY [L1I]: the protein stability index worked out at 2.18.
The same measure for STEHKRIHTGKKPHVCSLCGKAFY [L1S]: 2.81; for MTEHKRIHTGKKPHVCSLCGKAFY [L1M]: 2.3.
The same measure for DTEHKRIHTGKKPHVCSLCGKAFY [L1D]: 3.45.
For RTEHKRIHTGKKPHVCSLCGKAFY [L1R], the protein stability index worked out at 3.27.
With YTEHKRIHTGKKPHVCSLCGKAFY [L1Y] the figure was 3.44; with ATEHKRIHTGKKPHVCSLCGKAFY [L1A], 3.24; with HTEHKRIHTGKKPHVCSLCGKAFY [L1H], 2.97.
With LTEHKRIHTGKKPHVCSLFGKAFY [C19F] the figure was 1.81.
With LTEHKRIHTGKKPHVCSLYGKAFY [C19Y] the figure was 2.15; with LTEHKRIHTGKKPHVCSLIGKAFY [C19I], 1.75.
For LTEHKRIHTGKKPHVCSLLGKAFY [C19L], the protein stability index was 2.24.
With LTEHKRIHTGKKPHVCSLWGKAFY [C19W] the figure was 1.3.
The same measure for LTEHKRIHTGKKPHVCSLSGKAFY [C19S]: 1.92; for LTEHKRIHTYKKPHVCSLCGKAFY [G10Y]: 2.45; for LTEHKRIHTCKKPHVCSLCGKAFY [G10C]: 3.76.
The same measure for LTEHKRIHTPKKPHVCSLCGKAFY [G10P]: 3.22; for LTEHKRIHTVKKPHVCSLCGKAFY [G10V]: 2.28; for LTEHKRIHTEKKPHVCSLCGKAFY [G10E]: 3.6.
Regarding LTEHKRIHTGKKPVVCSLCGKAFY [H14V], the protein stability index came out at 1.96.
The same measure for LTEHKRIHTGKKPQVCSLCGKAFY [H14Q]: 2.97; for LTEHKRIHTGKKPWVCSLCGKAFY [H14W]: 3.52; for LTEHKRIHTGKKPMVCSLCGKAFY [H14M]: 2.86.
With LTEHKRIHTGKKPTVCSLCGKAFY [H14T] the figure was 2.17; with LTEHKRIHTGKKPCVCSLCGKAFY [H14C], 2.78; with LTEHKRIHTGKKPDVCSLCGKAFY [H14D], 2.34.
The same measure for LTEHQRIHTGKKPHVCSLCGKAFY [K5Q]: 2.79; for LTEHARIHTGKKPHVCSLCGKAFY [K5A]: 3.06; for LTEHMRIHTGKKPHVCSLCGKAFY [K5M]: 2.79.
LTEHDRIHTGKKPHVCSLCGKAFY [K5D]: the protein stability index was 3.35.
The same measure for LTEHNRIHTGKKPHVCSLCGKAFY [K5N]: 3.39; for LTEHCRIHTGKKPHVCSLCGKAFY [K5C]: 4.3; for LTEHPRIHTGKKPHVCSLCGKAFY [K5P]: 1.15.
The same measure for LTEHKRIHTGKKPHVCRLCGKAFY [S17R]: 1.94; for LTEHKRIHTGKKPHVCCLCGKAFY [S17C]: 1.96.
With LTEHKRIHTGKKPHVCTLCGKAFY [S17T] the figure was 1.82; with LTEHKRIHTGKKPHVCHLCGKAFY [S17H], 2.01; with LTEHKRIHTGKKPHVCWLCGKAFY [S17W], 2.72.
With LTEHKRIHTGKKPHVCLLCGKAFY [S17L], the protein stability index stood at 1.72.
On to LTEHKRIHTGKKPHVCQLCGKAFY [S17Q], for which the protein stability index came to 2.46.
The same measure for LTEHKRIHTGKKPHVCALCGKAFY [S17A]: 2.58; for LTEHKRIHTGKKPHVCFLCGKAFY [S17F]: 2.2.
With LTEHKRIHTGKKPHVCSLCGKAFV [Y24V] the figure was 2.33; with LTEHKRIHTGKKPHVCSLCGKAFM [Y24M], 2.69; with LTEHKRIHTGKKPHVCSLCGKAFD [Y24D], 3.12.
The same measure for LTEHKRIHTGKKPHVCSLCGKAFL [Y24L]: 3.01.
As to LTEHKRIHTGKKPHVCSLCGKAFT [Y24T], the protein stability index amounted to 3.42.
With LTEHKRIHTGKKPHVCSLCGKAFH [Y24H] the figure was 3.35.
For the variant LTEHKRIHTGKKPHVCSLCGKAFC [Y24C], the protein stability index is 3.33.
The same measure for LTEHKRIHTGKKPHVCSLCGKAFA [Y24A]: 2.88; for LTEHKRIHTGKKPHVCSLCGKAFE [Y24E]: 2.82.
The same measure for LTEHKRIHTGKKPHVCSLCGKAFK [Y24K]: 3.3.
